Publication PMC3834829, “A signature motif mediating selective interactions of BCL11A with the NR2E/F subfamily of orphan nuclear receptors” (Nucleic Acids Research, 2013)

B1: LexA-NSD1-(790–818) [not stated] / AAD-ERα-LBD-(282–595) [not stated] (parent complex)
chain 1: SSQNHIPIEPDYKFSTLLMMLKDMHDSKT
chain 2: SAGDMRAANLWPSPLMIKRSKKNSLALSLTADQMVSALLDAEPPILYSEYDPTRPFSEASMMGLLTNLADRELVHMINWAKRVPGFVDLTLHDQVHLLECAWLEILMIGLVWRSMEHPGKLLFAPNLLLDRNQGKCVEGMVEIFDMLLATSSRFRMMNLQGEEFVCLKSIILLNSGVYTFLSSTLKSLEEKDHIHRVLDKITDTLIHLMAKAGLTLQQQHQRLAQLLLILSHIRHMSNKGMEHLYSMKCKNVVPLYDLLLEMLDAHRLHAPTSRGGASVEETDQSHLATAGSTSSHSLQKYYITGEAEGFPATV

Variants of: B1
Assay: yeast two-hybrid; + 1µM E2; read off a plot

Row | response [nmol/mg/min] | Variant
1 | ~2000 | chain 1 SSQNHIPIEPDAKFSTLLMMLKDMHDSKT [chain 1 Y12A]
2 | ~2100 | chain 1 SSQNHIPIEPDYAFSTLLMMLKDMHDSKT [chain 1 K13A]
3 | ~0 | chain 1 SSQNHIPIEPDYKFATLLMMLKDMHDSKT [chain 1 S15A]
